The source of these data is patent US20240383950A1, “RECOMBINANT GLYCAN BINDING PROTEINS AND ITS USE” (UNICHEM LABORATORIES LIMITED, priority 2021, published 2024).

Series [1] in a line: Stability of expressed protein in TBS buffer. As to conditions: for % Single max impurity / % Total impurity / % purity: 10 mM TBS buffer pH 7.8, 2-8° C. It is filed as physicochemical. The procedure:
Stability of expressed protein i.e., SEQ ID NO. 3 was evaluated for 2 weeks using 10 mM TBS buffer with pH 7.8 at 2-8° C.

A short description of series [2]: pI of purified protein. The format is physicochemical. The text has this: The molecular mass and pI of purified protein of SEQ ID NO. 3 and SEQ ID NO.
For series [3], the system named is Blood Cancer Cellline MOLT-3. Nature of the series: MTS-PMS cytotoxicity bioassay, MOLT-3. Particulars: 80 μg/ml; 5000 cells/well.
Excerpt: 5000 cells/well were used for testing.
(§5) The drug Doxorubicin was used as system suitability (SST) reference.
The test system of series [4] is Ovarian Cancer cell line PA-1. Nature of the series: MTS-PMS cytotoxicity bioassay, PA-1. As to conditions: 80 μg/ml; 5000 cells/well.
Excerpt: 5000 cells/well were used for testing.
as §5
The subject of series [5] is Blood cancer cellline Jurkat E6. Nature of the series: MTS-PMS cytotoxicity bioassay, Jurkat E6. Particulars: 80 μg/ml; 5000 cells/well.
Excerpt: 5000 cells/well were used for testing.
as §5
In series [6] the test system is ovarian cancer cell line (PA-1). Nature of the series: Cytotoxicity bioassay of conjugate, PA-1. The format is cell-based. As to conditions: 72 hours; Cell titer glow. As to the method: (§1) Bioassay—Cytotoxicity effect Conjugate of Example 8 against ovarian cancer cell line (PA-1) and human urinary Bladder cancer cell line (T-24) was assayed.
(§2) 5,000 cells/well were plated and incubated at 37° C. overnight.
(§3) Conjugates/vehicle control dilutions were made in respective media and added to cells. Volume added: 50 uL to each well. […] Each concentration was analysed in triplicates. Media-only wells was used as a control to calculate percent viability. Cell titer glow reagent (volume: 50 uL) was added to each well, the plate was shaken for 5 mins and the luminescence was recorded. Drug Treatment Time: 72 hours. Percent viability was calculated by dividing the luminescence signal obtained for each treated well by the untreated well (media-only control) and multiplying by 100.
(§4) Data was next transformed using X=Log(x) and then analysed with nonlinear regression (curve fit), Dose Response inhibition−log (inhibitor) vs response (3 parameters) using PRISM software to determine the IC50 value.

Series [7] concerns human urinary Bladder cancer cell line (T-24). Nature of the series: Cytotoxicity bioassay of conjugate, T-24. It is filed as cell-based. Particulars: 72 hours; Cell titer glow. As to the method:
as §1, §2, §3, §4

Series [8] deals with bladder cancer cells (T24). Nature of the series: Colocalization study in cell organelles by confocal microscopy. It is filed as cell-based. Particulars: FITC-labelled, 100 μg/mL, 2 h, 37° C.
A short description of series [9]: Glycan binding study, O-Glycan array, core 2. As to conditions: O-Glycan array containing 94 glycans.
A short description of series [10]: Glycan binding study, N-Glycan array.

B1: SEQ ID NO. 3: SEQ ID NO. 2 re-engineered: Serine at 1st position, Glycine at 76th position, Cysteine added at carboxy terminal end (protein)
chain: SYKITVRVYQTNPDAFFHPVEKTVWKYANGGTWTITDDQHVLTMGGSGTSGTLRFHADNGESFTATFGVHNYKRWGDIVTNLAADETGMVINQQYYSQKNREEARERQLSNYQVKNAKGRNFQIVYTEAEGNDLHANLIIGC
With B1, in series [1] (0 Week), the “% Single max impurity” value is 1.31%, the “% Total impurity” value stood at 1.95% and the “% purity” value stood at 98.05%. In [1] (1 Week), the “% Single max impurity” value was 0.98%, the “% Total impurity” value was 2.66% and the “% purity” value came out at 97.34%. Also, in [1] (2 Week), the “% Single max impurity” value stood at 0.86%, the “% Total impurity” value was found to be 2.91% and the “% purity” value stood at 97.09%. Moreover, in [1] (2 weeks, 10 mM TBS buffer with pH 7.8 at 2-8° C.), the stability entry is listed as “stable”. The molecule further yielded a pI in series [2] of 6.49. The “% Cytotoxicity on Cell-lines MOLT-3” value in series [3] came to 43%. Further, in series [4], the “% Cytotoxicity on Cell-lines PA-1” value was 82%. The “% Cytotoxicity on Cell-lines Jurkat E6” value in series [5] was determined as 68%.

B2: Conjugate of Example 8: Protein of SEQ ID NO. 3 conjugated to cytotoxic drug MMAE using MC-Val-Cit-PAB-MMAE; DAR value 1.0 (conjugate)
chain: SYKITVRVYQTNPDAFFHPVEKTVWKYANGGTWTITDDQHVLTMGGSGTSGTLRFHADNGESFTATFGVHNYKRWGDIVTNLAADETGMVINQQYYSQKNREEARERQLSNYQVKNAKGRNFQIVYTEAEGNDLHANLIIGC
modifications: MC-Val-Cit-PAB-MMAE conjugate, DAR 1.0
notes: DAR value 1.0
Consider B2, for which the results for the IC50 in series [6] and in series [7] were 17.7 nM and 325 nM, respectively.

B3: SEQ ID NO. 4: SEQ ID NO. 2 re-engineered: Serine at 1st, Glycine at 76th, Serine added at 142nd and Cysteine at 143rd position (protein)
chain: SYKITVRVYQTNPDAFFHPVEKTVWKYANGGTWTITDDQHVLTMGGSGTSGTLRFHADNGESFTATFGVHNYKRWGDIVTNLAADETGMVINQQYYSQKNREEARERQLSNYQVKNAKGRNFQIVYTEAEGNDLHANLIIGSC
B3 displayed a pI in series [2] of 6.49.

B4: SEQ ID NO. 2: recombinant glycan binding protein, variant of Sclerotium Rolfsii Lectin, disclosed in Indian Patent Application 350/MUM/2009 (protein)
chain: TYKITVRVYQTNPDAFFHPVEKTVWKYANGGTWTITDDQHVLTMGGSGTSGTLRFHADNGESFTATFGVHNYKRWCDIVTNLAADETGMVINQQYYSQKNREEARERQLSNYQVKNAKGRNFQIVYTEAEGNDLHANLIIG
As to B4, in [8], the “colocalization in cell organelles” value was “colocalized in Mitochondria, Endoplasmic reticulum, Golgi bodies and Plasma membrane”. In addition, the “Estimated Kd for T antigen” value (O-Glycan array containing 94 glycans) was 0.319 µg/mL. The “binding profile to O-glycans” value (O-Glycan array, T-antigen and its extended core structures) is “strong and broad binding profile to O-glycans”. Moreover, the “% Cytotoxicity on Cell-lines MOLT-3” value in series [3] came to 46%. For the same molecule, in series [4], the “% Cytotoxicity on Cell-lines PA-1” value is 81%. Further, in [9], the “Estimated Kd for core 2” value is 0.212 µg/mL. In series [10], the “binding to N-glycans” value was “specific binding to N-glycans containing GlcNac at the non-reducing end”. The “% Cytotoxicity on Cell-lines Jurkat E6” value in series [5] is 61%.
